Test results published in patent US6780850.

Key:
thrombin (IIa), active [1] = biological target: T1, thrombin (IIa), active (UniProt P00734;P00734 P00734:328-363,P00734:364-622); experiment: inhibition; inhibition of coagulation
[2] = biological target: T2, alpha-thrombin (active site blocked with fluorescein-PPACK) (Homo sapiens, UniProt P00734;P00734 P00734:328-363,P00734:364-622); experiment: fluorometric titration; duplicate measurement gave 99 nM; 20 mM Tris, 150 mM NaCl, pH 7.4
[3] = biological target: T2, alpha-thrombin (active site blocked …); experiment: fluorometric titration, 20 mM Tris, 150 mM NaCl, pH 7.4; exosite 1
thrombin (IIa), active [4] = biological target: T1, thrombin (IIa), active; experiment: inhibition; kD in the hydrolysis of Chromozym-thrombin
[5] = biological target: T2, alpha-thrombin (active site blocked …); experiment: fluorometric titration; duplicate measurement gave 110 nM; 20 mM Tris, 150 mM NaCl, pH 7.4
[6] = biological target: T2, alpha-thrombin (active site blocked …); experiment: fluorometric titration, 20 mM Tris, 150 mM NaCl, pH 7.4; exosite 2
[7] = biological target: T2, alpha-thrombin (active site blocked …); experiment: fluorometric titration, 492/522 nm, 100 nM thrombin, 20 mM Tris, 150 mM NaCl, pH 7.4; exosite 1

GGTTGGTGTGGTTGG (ssDNA, 3'-biotin-streptavidin) [ODN 1f] gave a Ki (thrombin (IIa), active [1]) of roughly 100 nM and a Kd [2] of 41 nM.

Binder GGTTGGTGTGGTTGG (ssDNA, 3'-biotin (biotin TEG)) [ODN 1e] has a Kd [3] of 55 nM.

For AGTCCGTGGTAGGGCAGGTTGGGGTGACT (ssDNA, 3'-biotin-streptavidin) [ODN 2f], the Kd (thrombin (IIa), active [4]) was 10.2 nM and the Kd [5] was 89 nM.

With AGTCCGTGGTAGGGCAGGTTGGGGTGACT (ssDNA) [ODN 2a] the Kd [6] was 16.5 nM.

AGTCCGTGGTAGGGCAGGTTGGGGTGACT (ssDNA, 3'-biotin (biotin TEG)) [ODN 2e] was tested, and the Kd [6] was 85 nM.

For GGTTGGTGTGGTTGG (ssDNA) [ODN 1a], the Kd [7] was 45 nM.
